# Entries after “also recorded” stand apart in the source; their conditions may differ.
# Tests used:
# [1] = test system: rabbit PMN; assay: Rabbit PMN chemotaxis; type: cell-based
# Experimental: (§1) Chemotaxis was measured using the modified Boyden chamber technique (Snyderman et al.). The leading front method (Zigmond et al.) was used to assess migration of monocytes and lymphocytes through a 8 μm filter (Millipore Corporation, Bedford, Mass.). PMN chemotaxis was measured using a 3 μm filter (Millipore). The purified CAP37 protein (Example 1) used in chemotaxis assays were endotoxin-free as determined by the Limulus Amoebocyte Lysate Assay (Whittaker Bioproducts, Inc., Walkersville, Md.). The dilutions of CAP37 and N-formyl-methionyl-leucyl-phenylalanine (FMLP) were made in Geys buffer (Gibco) containing 2% endotoxin-free bovine serum albumin (BSA). Geys buffer containing 2% BSA served as the negative control, and a […] solution of FMLP as the positive control.
# (§2) The chambers were incubated in a humidified atmosphere (6.2% CO2) for 2 hours when testing monocytes and lymphocytes, and for 30 minutes when testing PMNs. The filters were then removed and processed as previously described (Snyderman et al.). The cells were viewed using oil immersion and the distance the cells had migrated into the filter was determined over five different fields on the same slide (Zigmond et al.). Triplicate assays were performed for each experimental point.
# [2] = test system: Salmonella SH7518; assay: Bactericidal assay; type: cell-based, Salmonella typhimurium; conditions: Salmonella SH7518
# Experimental: (§3) An overnight culture of Salmonella typhimurium (or other microorganism of interest, if desired) is set up by inoculating one colony in 5 ml of LB Broth (LB Broth consists of 10 g BACTO tryptone (DIFCO), 5 g BACFO yeast (DIFCO) and 5 g NaCl made up to 1 L with endotoxin free water; add 15 g of BACTO agar (DIFCO) to this broth to make LB agar (autoclave). The culture is incubated at 37° C. with rotation. 100 μl of this overnight culture is then transferred to 5 ml of fresh LB Broth and incubated at 37° C. with rotation for 2 hours. Four ml of this log phase culture is then transferred to a sterile cuvette and the optical density is read at […]. Dilutions of the microorganism are then made in tryptone saline (5 g BAOTO tryptone (DIFCO) and 5 g NaCl made up to 1 L with endotoxin free water, pH 5.5) to give a final concentration of 5×10^3 organisms/ml (an O.D. reading of 0.25 at 520 mm is equivalent to 1×10^8 organisms/ml). The microorganisms are placed at 4° C. until ready to be used.
# (§4) The stock solutions of peptides are stored at -20° C. at concentrations of 1 mg/ml of endotoxin-free water. The peptide is diluted out in tryptone saline to the desired concentration. 100 μl of the peptide is added to each well of the microtitre plate (Corning) and then 100 μl of the bacterial suspension (well vortexed) is added. Each assay point is set up in triplicate. 100 μl of a control, consisting of bacteria and tryptone saline (T=0) in the absence of peptide is plated out on LB agar plates. The microliter plate is then incubated at 37° C. for 1 hour. At the end of the incubation time, 100 μl of each sample is plated out on LB agar plates. The T=60 control (consisting of bacteria and tryptone saline in the absence of peptide) is plated out last. The plates are incubated overnight, and the number of colony forming units (CFU) are determined.
# (§5) The % killed is determined as follows: [formula]
# [3] = test system: Ps. aeruginosa; conditions: (Shafer, 1986); cited from earlier work
# [4] = test system: E. coli; conditions: (Shafer, 1986); cited from earlier work
# [5] = test system: monocytes/macrophages; assay: In vivo chemotactic assay, intraperitoneal injection, peritoneal exudate cells; design: species or system BALB/c mice; conditions: for % PMN / % monocytes: i.p., mice, peritoneal exudate
# Experimental: Female BALB/c mice (6-8 weeks) (Jackson Laboratory, Bar Harbor, […].) were injected intraperitoneally (i.p.) with 100 ng CAP37 (purified according to the method of the invention) per mouse in 2 ml RPMI-1640 serum-free medium (Mediatech). A control group of mice were injected i.p. with 2 ml brewers thioglycollate (4% w/v) (Difco Laboratories), a known stimulator of inflammatory cells whose action is well documented. A second control group of mice were injected j.p. with 2 ml of RPMI-1640 alone.
# At 6, 24, 48 and 72 hours following these i.p. injections, four mice in each group were sacrificed by CO2 anesthesia. Ten ml sterile medium was injected into the peritoneal cavity of each mouse and the abdominal area gently massaged to dislodge the exudate cells. The medium containing the exudate cells was then aspirated from the peritoneal cavity using a 19 gauge needle attached to a syringe. The total number of cells in the peritoneal exudate was determined by counting the cells on a COULTER COUNTER (Coulter Electronics, Hialeah, Fla.: The operation of the COULTER COUNTER is based on electrical conductivity difference between particles and common diluent. Particles act as insulators, diluents as good conductors. The particles, suspended in an electrolyte, are forced through a small aperture through which an electrical current path has been established. As each particle displaces electrolyte in the aperture, a pulse essentially proportional to the particle volume is produced. Thus a 3-dimensional particle volume response is the basis for all sizing, regardless of position or orientation of the particle in solution.) One hundred μl of the peritoneal exudate was cytocentrifuged onto a glass slide and the cells stained with Wright's stain. A differential count of the cells was made by counting the number of monocytes, lymphocytes, neutrophils, basophils and eosinoplils per hundred consecutive cells. These experiments were performed to determine the time course of migration of neutrophils, monocytes, lymphocytes and other cells into the peritoneal cavity, in response to an i.p. injection of CAP37.
# [6] = test system: Salmonella SH7426; assay: Bactericidal assay; type: cell-based
# Experimental: as §3, §4, §5
# [7] = test system: PMN; assay: PMN chemotaxis, modified Boyden chamber technique; type: cell-based, human; conditions: range employed in these experiments
# Experimental: as §1, §2
molecule,measurement,setting,value
"CAP37: granule-associated cationic protein (mol. wt. 37,000 daltons) from human PMN, 222 amino acid mature protein (protein) IVGGRKARPRQFPFLASIQNQGRHFCGGALIHARFVMTAASCFQSQNPGVSTVVLGAYDLRRRERQSRQTFSISSMSENGYDPQQNLNDLMLLQLDREANLTSSVTILPLPLQNATVEAGTRCQVAGWGSQRSGGRLSRFPRFVNVTVTPEDQCRPNNVCTGVLTRRGGICNGDGGTPLVCEGLAHGVASFSLGPCGRGPDFFTRVALFRDWIDGVLNNPGP",chemotactic response of rabbit PMN,[1],did not show a chemotactic response
same,% survival with CAP 37,[2],10.9%
same,% survival with CAP 37,[3],36%
same,% survival with CAP 37,[4],4%
same,migration of cells into the peritoneal cavity (in words),[5]; 100 ng CAP37 per mouse i.p.,moderately increased the overall numbers of cells; also recorded: potent monocyte chemoattractant capacity
same,time at which monocytes appeared in the peritoneal cavity,[5]; 100 ng CAP37 per mouse i.p.,24 h
same,% PMN,[5]; 6 hours post injection,65%
same,% monocytes,[5]; 6 hours post injection,7%
same,% PMN,[5]; 24 hours post injection,dramatic reduction in neutrophils
same,% monocytes,[5]; 24 hours post injection,27%
same,% PMN,"[5]; 24 hours post injection, listed as CAP 37",26%
same,% PMN,[5]; 48 hours post injection,4%
same,% monocytes,[5]; 48 hours post injection,48%
same,% PMN,[5]; 72 hours post injection,3%
same,% monocytes,[5]; 72 hours post injection,55%
same,% survival with CAP 37,[6],64.3%
same,effect on PMN chemotaxis,[7],did not have any effect
